Measured values as given in patent publication US20140274782A1, “AFFINITY REAGENTS AND METHODS FOR DETECTION, PURIFICATION, AND PROTEOMIC ANALYSIS OF METHYLATED PROTEINS” (The Board of Trustees of the Leland Stanford Junior …, priority 2013, published 2014).

T1: G9a and GLP (Homo sapiens, UniProt Q96KQ7+Q9H9B1)
T1 sequence (Q96KQ7 2-1210 limits assumed): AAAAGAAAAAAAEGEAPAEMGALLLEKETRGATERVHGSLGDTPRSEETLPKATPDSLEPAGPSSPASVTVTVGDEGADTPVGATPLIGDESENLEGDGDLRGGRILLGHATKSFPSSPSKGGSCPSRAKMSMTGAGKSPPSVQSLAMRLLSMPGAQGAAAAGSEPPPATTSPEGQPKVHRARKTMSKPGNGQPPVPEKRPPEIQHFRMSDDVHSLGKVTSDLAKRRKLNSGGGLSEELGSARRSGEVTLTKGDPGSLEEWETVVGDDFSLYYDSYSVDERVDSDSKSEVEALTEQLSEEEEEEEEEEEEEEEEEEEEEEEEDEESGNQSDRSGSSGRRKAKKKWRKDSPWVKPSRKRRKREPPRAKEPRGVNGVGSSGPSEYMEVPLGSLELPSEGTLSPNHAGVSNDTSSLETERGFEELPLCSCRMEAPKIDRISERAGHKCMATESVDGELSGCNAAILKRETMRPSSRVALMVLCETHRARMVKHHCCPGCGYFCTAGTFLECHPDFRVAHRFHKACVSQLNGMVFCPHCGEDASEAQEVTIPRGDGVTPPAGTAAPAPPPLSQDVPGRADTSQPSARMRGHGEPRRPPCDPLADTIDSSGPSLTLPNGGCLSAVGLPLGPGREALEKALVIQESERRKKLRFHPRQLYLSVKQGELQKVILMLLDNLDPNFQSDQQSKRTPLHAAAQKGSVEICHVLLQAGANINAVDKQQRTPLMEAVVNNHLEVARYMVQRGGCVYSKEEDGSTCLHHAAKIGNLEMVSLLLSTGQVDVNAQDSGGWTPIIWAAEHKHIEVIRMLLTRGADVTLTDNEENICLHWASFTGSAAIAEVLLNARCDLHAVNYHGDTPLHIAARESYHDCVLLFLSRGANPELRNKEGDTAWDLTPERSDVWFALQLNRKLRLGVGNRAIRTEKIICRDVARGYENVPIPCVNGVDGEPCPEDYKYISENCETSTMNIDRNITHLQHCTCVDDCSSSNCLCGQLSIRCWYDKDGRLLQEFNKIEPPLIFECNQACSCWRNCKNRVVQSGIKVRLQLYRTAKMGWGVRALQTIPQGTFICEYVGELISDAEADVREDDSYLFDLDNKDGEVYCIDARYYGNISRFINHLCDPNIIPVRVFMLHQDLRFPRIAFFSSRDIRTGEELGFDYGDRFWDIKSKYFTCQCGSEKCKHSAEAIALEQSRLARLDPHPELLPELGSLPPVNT
T1 sequence (Q9H9B1 2-1298 limits assumed): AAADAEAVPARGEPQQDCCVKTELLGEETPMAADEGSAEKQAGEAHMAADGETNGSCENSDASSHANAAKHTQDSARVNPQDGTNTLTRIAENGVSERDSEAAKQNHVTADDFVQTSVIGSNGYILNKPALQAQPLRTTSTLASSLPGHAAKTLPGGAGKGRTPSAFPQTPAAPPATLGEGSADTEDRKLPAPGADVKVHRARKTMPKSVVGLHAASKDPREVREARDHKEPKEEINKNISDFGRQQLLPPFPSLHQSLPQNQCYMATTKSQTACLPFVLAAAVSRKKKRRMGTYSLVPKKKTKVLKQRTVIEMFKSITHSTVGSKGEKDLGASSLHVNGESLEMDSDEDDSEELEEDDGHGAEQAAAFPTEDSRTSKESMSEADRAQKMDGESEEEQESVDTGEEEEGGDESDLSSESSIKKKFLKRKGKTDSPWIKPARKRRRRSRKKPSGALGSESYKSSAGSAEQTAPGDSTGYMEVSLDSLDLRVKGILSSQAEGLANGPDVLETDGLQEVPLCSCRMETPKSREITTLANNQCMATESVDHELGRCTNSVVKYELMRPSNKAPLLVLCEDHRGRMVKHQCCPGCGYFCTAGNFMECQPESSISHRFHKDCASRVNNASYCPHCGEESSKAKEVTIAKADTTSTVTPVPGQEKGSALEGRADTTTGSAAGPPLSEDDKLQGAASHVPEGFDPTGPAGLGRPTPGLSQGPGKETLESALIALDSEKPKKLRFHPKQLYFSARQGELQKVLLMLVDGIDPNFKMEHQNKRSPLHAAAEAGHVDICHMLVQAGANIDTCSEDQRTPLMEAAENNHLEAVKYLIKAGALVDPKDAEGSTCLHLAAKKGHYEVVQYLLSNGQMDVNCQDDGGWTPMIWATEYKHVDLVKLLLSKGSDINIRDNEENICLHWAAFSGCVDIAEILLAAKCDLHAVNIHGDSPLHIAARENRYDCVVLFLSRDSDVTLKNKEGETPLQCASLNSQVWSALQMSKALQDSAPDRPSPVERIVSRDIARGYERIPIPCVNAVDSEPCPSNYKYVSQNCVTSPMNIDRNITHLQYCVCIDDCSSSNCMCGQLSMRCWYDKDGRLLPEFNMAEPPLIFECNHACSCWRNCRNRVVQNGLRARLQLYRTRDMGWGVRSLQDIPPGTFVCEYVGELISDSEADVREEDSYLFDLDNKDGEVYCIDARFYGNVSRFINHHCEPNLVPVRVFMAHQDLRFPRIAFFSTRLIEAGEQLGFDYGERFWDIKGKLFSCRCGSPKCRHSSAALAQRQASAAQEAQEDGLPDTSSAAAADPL

B1: HNRNPR (protein, UniProt O43390 2-633, looked up)
Heterogeneous nuclear …: ANQVNGNAVQLKEEEEPMDTSSVTHTEHYKTLIEAGLPQKVAERLDEIFQTGLVAYVDLDERAIDALREFNEEGALSVLQQFKESDLSHVQNKSAFLCGVMKTYRQREKQGSKVQESTKGPDEAKIKALLERTGYTLDVTTGQRKYGGPPPDSVYSGVQPGIGTEVFVGKIPRDLYEDELVPLFEKAGPIWDLRLMMDPLSGQNRGYAFITFCGKEAAQEAVKLCDSYEIRPGKHLGVCISVANNRLFVGSIPKNKTKENILEEFSKVTEGLVDVILYHQPDDKKKNRGFCFLEYEDHKSAAQARRRLMSGKVKVWGNVVTVEWADPVEEPDPEVMAKVKVLFVRNLATTVTEEILEKSFSEFGKLERVKKLKDYAFVHFEDRGAAVKAMDEMNGKEIEGEEIEIVLAKPPDKKRKERQAARQASRSTAYEDYYYHPPPRMPPPIRGRGRGGGRGGYGYPPDYYGYEDYYDDYYGYDYHDYRGGYEDPYYGYDDGYAVRGRGGGRGGRGAPPPPRGRGAPPPRGRAGYSQRGAPLGPPRGSRGGRGGPAQQQRGRGSRGSRGNRGGNVGGKRKADGYNQPDSKRRQTNNQQNWGSQPIAQQPLQQGGDYSGNYGYNNDNQEFYQDTYGQQWK
B2: CPSF3 (protein, UniProt Q9UKF6 2-684, looked up)
Cleavage and polyadenylation …: SAIPAEESDQLLIRPLGAGQEVGRSCIILEFKGRKIMLDCGIHPGLEGMDALPYIDLIDPAEIDLLLISHFHLDHCGALPWFLQKTSFKGRTFMTHATKAIYRWLLSDYVKVSNISADDMLYTETDLEESMDKIETINFHEVKEVAGIKFWCYHAGHVLGAAMFMIEIAGVKLLYTGDFSRQEDRHLMAAEIPNIKPDILIIESTYGTHIHEKREEREARFCNTVHDIVNRGGRGLIPVFALGRAQELLLILDEYWQNHPELHDIPIYYASSLAKKCMAVYQTYVNAMNDKIRKQININNPFVFKHISNLKSMDHFDDIGPSVVMASPGMMQSGLSRELFESWCTDKRNGVIIAGYCVEGTLAKHIMSEPEEITTMSGQKLPLKMSVDYISFSAHTDYQQTSEFIRALKPPHVILVHGEQNEMARLKAALIREYEDNDEVHIEVHNPRNTEAVTLNFRGEKLAKVMGFLADKKPEQGQRVSGILVKRNFNYHILSPCDLSNYTDLAMSTVKQTQAIPYTGPFNLLCYQLQKLTGDVEELEIQEKPALKVFKNITVIQEPGMVVLEWLANPSNDMYADTVTTVILEVQSNPKIRKGAVQKVSKKLEMHVYSKRLEIMLQDIFGEDCVSVKDDSILSVTVDGKTANLNLETRTVECEEGSEDDESLREMVELAAQRLYEALTPVH
B3: DAZAP1 (protein, UniProt Q96EP5 1-407, looked up)
DAZ-associated protein 1: MNNSGADEIGKLFVGGLDWSTTQETLRSYFSQYGEVVDCVIMKDKTTNQSRGFGFVKFKDPNCVGTVLASRPHTLDGRNIDPKPCTPRGMQPERTRPKEGWQKGPRSDNSKSNKIFVGGIPHNCGETELREYFKKFGVVTEVVMIYDAEKQRPRGFGFITFEDEQSVDQAVNMHFHDIMGKKVEVKRAEPRDSKSQAPGQPGASQWGSRVVPNAANGWAGQPPPTWQQGYGPQGMWVPAGQAIGGYGPPPAGRGAPPPPPPFTSYIVSTPPGGFPPPQGFPQGYGAPPQFSFGYGPPPPPPDQFAPPGVPPPPATPGAAPLAFPPPPSQAAPDMSKPPTAQPDFPYGQYAGYGQDLSGFGQGFSDPSQQPPSYGGPSVPGSGGPPAGGSGFGRGQNHNVQGFHPYRR
B4: AMOT (protein, UniProt Q4VCS5 1-1084, looked up)
Angiomotin: MRNSEEQPSGGTTVLQRLLQEQLRYGNPSENRSLLAIHQQATGNGPPFPSGSGNPGPQSDVLSPQDHHQQLVAHAARQEPQGQEIQSENLIMEKQLSPRMQNNEELPTYEEAKVQSQYFRGQQHASVGAAFYVTGVTNQKMRTEGRPSVQRLNPGKMHQDEGLRDLKQGHVRSLSERLMQMSLATSGVKAHPPVTSAPLSPPQPNDLYKNPTSSSEFYKAQGPLPNQHSLKGMEHRGPPPEYPFKGMPPQSVVCKPQEPGHFYSEHRLNQPGRTEGQLMRYQHPPEYGAARPAQDISLPLSARNSQPHSPTSSLTSGGSLPLLQSPPSTRLSPARHPLVPNQGDHSAHLPRPQQHFLPNQAHQGDHYRLSQPGLSQQQQQQQQQHHHHHHHQQQQQQQPQQQPGEAYSAMPRAQPSSASYQPVPADPFAIVSRAQQMVEILSDENRNLRQELEGCYEKVARLQKVETEIQRVSEAYENLVKSSSKREALEKAMRNKLEGEIRRMHDFNRDLRERLETANKQLAEKEYEGSEDTRKTISQLFAKNKESQREKEKLEAELATARSTNEDQRRHIEIRDQALSNAQAKVVKLEEELKKKQVYVDKVEKMQQALVQLQAACEKREQLEHRLRTRLERELESLRIQQRQGNCQPTNVSEYNAAALMELLREKEERILALEADMTKWEQKYLEENVMRHFALDAAATVAAQRDTTVISHSPNTSYDTALEARIQKEEEEILMANKRCLDMEGRIKTLHAQIIEKDAMIKVLQQRSRKEPSKTEQLSCMRPAKSLMSISNAGSGLLSHSSTLTGSPIMEEKRDDKSWKGSLGILLGGDYRAEYVPSTPSPVPPSTPLLSAHSKTGSRDCSTQTERGTESNKTAAVAPISVPAPVAAAATAAAITATAATITTTMVAAAPVAVAAAAAPAAAAAPSPATAAATAAAVSPAAAGQIPAAASVASAAAVAPSAAAAAAVQVAPAAPAPVPAPALVPVPAPAAAQASAPAQTQAPTSAPAVAPTPAPTPTPAVAQAEVPASPATGPGPHRLSIPSLTCNPDKTDGPVFHSNTLERKTPIQILGQEPDAEMVEYLI

What was measured:
3×MBT domain of L3MBTL1 = experiment: Triple SILAC pull-down, 3xMBT/3xMBTD355N ratio (cytoplasmic, nuclear and chromatin fractions of 293T cells); assay type: binding, human; conditions: SILAC ratio, pull-down 3xMBT vs 3xMBTD355N; for 3xMBT/D355N UNC Heavy: experiment with UNC0638 in heavy SILAC media; for 3xMBT/D355N UNC Light: experiment with UNC0638 in light SILAC media;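 for all read-outs here: proteins quantified with MaxQuant, requiring at least two unique peptides and quantification in both label directions, normalized to the mean of proteins from a digested loading control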
G9a and GLP = biological target: T1, G9a and GLP; experiment: Triple SILAC pull-down after UNC0638 treatment of 293T cells, DMSO/UNC0638 ratio of protein captured by 3×MBT; assay type: cell-based; design: endogenous in cells; host or cells: HEK 293T; conditions: for Relative to UNC0638 UNC Heavy / Relative to UNC0638 UNC Light: SILAC ratio DMSO/UNC0638 of protein pulled down with 3xMBT; for Relative to UNC0638 UNC Heavy: UNC0638 in heavy SILAC media; for Relative to UNC0638 UNC Light: UNC0638 in light SILAC media; for Relative to UNC0638 Average: average of UNC Light and UNC Heavy experiments;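 for all read-outs here: mass spectrometry (Q-Exactive) SILAC quantitation, DMSO/UNC0638 ratio computed after subtracting 3×MBTD355N mutant pull-down background, only proteins with at least twofold 3×MBT over mutant signal considered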

| Molecule | 3xMBT/D355N UNC Heavy (3×MBT domain of L3MBTL1) [log base 2] | 3xMBT/D355N UNC Light (3×MBT domain of L3MBTL1) [log base 2] | Relative to UNC0638 UNC Heavy (G9a and GLP) [log base 2] | Relative to UNC0638 UNC Light (G9a and GLP) [log base 2] | Relative to UNC0638 Average (G9a and GLP) [log base 2] |
| --- | --- | --- | --- | --- | --- |
| B1 | 3.20 | 3.60 | 0.12 | 0.24 | 0.18 |
| B2 | 3.39 | 0.51 | 0.30 | 0.06 | 0.18 |
| B3 | 2.92 | 2.10 | 0.01 | 0.35 | 0.18 |
| B4 | 2.95 | 2.44 | −0.03 | 0.39 | 0.18 |
